The record followed here is US20230000998A1 (OSSIANIX, published 2023).

The target in assay [1] is T1, rat TfR-1 (transferrin receptor 1), purified recombinant (rat, UniProt Q99376 89-761, limits assumed).
T1 construct: also called rTfR1
As to the kind of experiment: kinetic ELISA on coated recombinant TfR-1, anti-human Fc-HRP detection, Vmax at 370 nm. The protocol:
(§1) The TrkB fusion constructs were assessed for binding to recombinant human, mouse, rat and cynomolgus TfR1. […] When these conjugates were compared to a control VNAR-Fc (open circles), no loss of affinity for TrkB(HC2N) (squares) was observed and only minimal loss for TrkB(HV2N) (triangles).
(§2) TfR-1-binding ELISA. Nunc MaxiSorp plates (Thermo Fisher) were coated with 100 μl of 1 μg/ml of purified, recombinant mouse, human, rat or cynomolgus TfR-1, or with human serum albumin (HAS; Sigma) and incubated at 4° C. overnight. Plates were incubated with blocking buffer (2.5% non-fat dry milk in PBS with 0.1% Tween20; “PBST”) for 1 hat room temperature. Antibody or conjugate solutions were incubated in PBST for 30 min. The blocked solutions (100 μl) were transferred to the blocked plates and incubated for 1 h before washing with PBST. After washing, the plates were incubated for 30 min with a goat anti-human Fc-peroxidase antibody diluted 1:5000 (Sigma) in PBST. The plates were washed and developed with SureBlue™ TMB substrate (VWR). The development of the reaction was measured at 370 nm in real time providing data for Vmax analysis. EC50 values were calculated using 4-parametric non-linear regression (Prism).
Background: In an ELISA, binding on a coated surface is turned into a signal by an enzyme label.

The target of assay [2] is T2, cynomolgus TfR-1 (transferrin receptor 1), purified recombinant (cynomolgus, UniProt H9EXL1 89-760 (rhesus entry)).
T2 construct: also called cTfR1
T2 sequence (chain, as listed by the source): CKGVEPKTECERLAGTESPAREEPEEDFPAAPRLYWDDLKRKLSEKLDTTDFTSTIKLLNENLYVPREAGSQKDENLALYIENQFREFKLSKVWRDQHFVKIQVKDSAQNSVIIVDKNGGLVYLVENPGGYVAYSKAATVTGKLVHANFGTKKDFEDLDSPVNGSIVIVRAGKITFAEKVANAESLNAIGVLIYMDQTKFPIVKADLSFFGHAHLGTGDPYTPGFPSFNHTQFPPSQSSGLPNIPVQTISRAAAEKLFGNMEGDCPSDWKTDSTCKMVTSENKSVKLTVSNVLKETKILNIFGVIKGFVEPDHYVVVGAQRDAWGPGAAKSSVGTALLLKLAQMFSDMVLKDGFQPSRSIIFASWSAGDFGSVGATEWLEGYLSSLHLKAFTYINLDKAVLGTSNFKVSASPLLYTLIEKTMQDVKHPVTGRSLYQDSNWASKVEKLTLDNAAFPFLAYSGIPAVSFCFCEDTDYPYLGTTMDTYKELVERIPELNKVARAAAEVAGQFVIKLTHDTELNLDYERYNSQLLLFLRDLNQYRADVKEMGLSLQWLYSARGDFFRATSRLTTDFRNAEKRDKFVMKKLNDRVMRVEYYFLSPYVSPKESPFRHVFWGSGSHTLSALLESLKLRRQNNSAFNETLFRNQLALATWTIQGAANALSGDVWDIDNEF
Described as above. The protocol: as §1, §2

For assay [3], the target named is T3, mouse TfR-1 (transferrin receptor 1), purified recombinant (mouse, UniProt Q62351 89-763, limits assumed).
T3 construct: also called mTfR1
T3 sequence (Q62351 89-763 limits assumed): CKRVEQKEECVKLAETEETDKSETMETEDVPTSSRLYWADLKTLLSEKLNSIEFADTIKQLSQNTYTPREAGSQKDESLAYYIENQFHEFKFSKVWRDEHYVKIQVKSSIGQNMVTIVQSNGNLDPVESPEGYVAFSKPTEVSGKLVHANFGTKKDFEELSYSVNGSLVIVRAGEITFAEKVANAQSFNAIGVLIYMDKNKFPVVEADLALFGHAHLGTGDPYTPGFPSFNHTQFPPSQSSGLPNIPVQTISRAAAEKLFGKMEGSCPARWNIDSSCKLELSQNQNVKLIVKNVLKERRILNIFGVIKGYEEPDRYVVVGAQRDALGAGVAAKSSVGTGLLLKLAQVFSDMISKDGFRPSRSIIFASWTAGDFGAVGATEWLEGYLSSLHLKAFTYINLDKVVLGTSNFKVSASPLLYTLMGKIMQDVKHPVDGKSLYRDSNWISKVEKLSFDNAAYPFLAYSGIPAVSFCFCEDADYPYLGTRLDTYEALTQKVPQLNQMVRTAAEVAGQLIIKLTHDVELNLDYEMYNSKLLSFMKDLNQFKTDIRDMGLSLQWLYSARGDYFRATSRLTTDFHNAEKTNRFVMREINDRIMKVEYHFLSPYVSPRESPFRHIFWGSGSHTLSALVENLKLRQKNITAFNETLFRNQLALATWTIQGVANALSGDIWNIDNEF
The assay is described as above. Here is the method:
as §1, §2

The target in assay [4] is T4, human TfR-1 (transferrin receptor 1), purified recombinant (human, UniProt P02786 89-760, limits assumed).
T4 construct: Coated on ELISA plates at 1 ug/ml; also called hTfR1
T4 sequence (P02786 89-760 limits assumed): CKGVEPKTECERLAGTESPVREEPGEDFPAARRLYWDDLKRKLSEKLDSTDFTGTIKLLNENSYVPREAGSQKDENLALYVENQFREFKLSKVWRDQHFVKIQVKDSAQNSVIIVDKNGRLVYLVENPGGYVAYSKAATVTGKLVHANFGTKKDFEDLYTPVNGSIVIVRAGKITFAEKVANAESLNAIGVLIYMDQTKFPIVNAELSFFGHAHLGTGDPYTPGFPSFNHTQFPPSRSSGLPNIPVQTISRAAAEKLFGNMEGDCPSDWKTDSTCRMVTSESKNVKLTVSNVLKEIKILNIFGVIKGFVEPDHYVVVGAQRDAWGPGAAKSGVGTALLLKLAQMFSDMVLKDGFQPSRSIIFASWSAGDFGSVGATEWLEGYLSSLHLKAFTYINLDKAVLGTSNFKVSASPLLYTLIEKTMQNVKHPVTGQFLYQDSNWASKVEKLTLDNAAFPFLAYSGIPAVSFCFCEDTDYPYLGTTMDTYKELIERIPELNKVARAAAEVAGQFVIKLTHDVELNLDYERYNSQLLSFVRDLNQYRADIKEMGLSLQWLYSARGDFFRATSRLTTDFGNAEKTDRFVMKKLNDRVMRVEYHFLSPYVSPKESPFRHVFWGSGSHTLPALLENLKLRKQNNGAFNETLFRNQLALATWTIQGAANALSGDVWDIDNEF
The description is as above. The protocol:
as §1, §2

For assay [5], the target named is T5, human serum albumin (human, UniProt P02768 25-609).
T5 construct: also called HSA; HAS
T5 sequence (P02768 25-609 limits assumed): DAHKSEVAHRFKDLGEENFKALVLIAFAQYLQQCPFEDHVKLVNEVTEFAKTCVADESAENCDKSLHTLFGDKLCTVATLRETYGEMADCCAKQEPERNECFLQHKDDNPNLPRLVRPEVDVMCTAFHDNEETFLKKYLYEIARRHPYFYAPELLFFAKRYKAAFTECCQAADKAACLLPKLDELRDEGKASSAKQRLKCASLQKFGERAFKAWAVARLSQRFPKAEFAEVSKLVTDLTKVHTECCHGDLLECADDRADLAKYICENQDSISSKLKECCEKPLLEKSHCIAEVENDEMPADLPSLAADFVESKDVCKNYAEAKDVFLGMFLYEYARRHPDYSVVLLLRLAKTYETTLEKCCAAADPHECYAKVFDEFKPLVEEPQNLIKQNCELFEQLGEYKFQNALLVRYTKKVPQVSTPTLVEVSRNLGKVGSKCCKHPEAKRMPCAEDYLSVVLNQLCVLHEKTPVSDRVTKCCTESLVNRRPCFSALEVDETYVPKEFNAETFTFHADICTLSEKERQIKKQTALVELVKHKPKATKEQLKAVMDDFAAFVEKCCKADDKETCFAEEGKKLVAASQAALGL
As to the kind of experiment: kinetic ELISA on coated HSA (negative control); ND: not detected. The protocol: as §1, §2

Assay [6] deals with human TrkB receptor (overexpressed on TrkB-NFAT-bla CHO-K1 reporter cells) (human, UniProt Q16620 32-822). In words: cell-based or functional assay.
Sequence of human TrkB receptor (overexpressed on TrkB-NFAT-bla CHO-K1 reporter cells) (Q16620 32-822): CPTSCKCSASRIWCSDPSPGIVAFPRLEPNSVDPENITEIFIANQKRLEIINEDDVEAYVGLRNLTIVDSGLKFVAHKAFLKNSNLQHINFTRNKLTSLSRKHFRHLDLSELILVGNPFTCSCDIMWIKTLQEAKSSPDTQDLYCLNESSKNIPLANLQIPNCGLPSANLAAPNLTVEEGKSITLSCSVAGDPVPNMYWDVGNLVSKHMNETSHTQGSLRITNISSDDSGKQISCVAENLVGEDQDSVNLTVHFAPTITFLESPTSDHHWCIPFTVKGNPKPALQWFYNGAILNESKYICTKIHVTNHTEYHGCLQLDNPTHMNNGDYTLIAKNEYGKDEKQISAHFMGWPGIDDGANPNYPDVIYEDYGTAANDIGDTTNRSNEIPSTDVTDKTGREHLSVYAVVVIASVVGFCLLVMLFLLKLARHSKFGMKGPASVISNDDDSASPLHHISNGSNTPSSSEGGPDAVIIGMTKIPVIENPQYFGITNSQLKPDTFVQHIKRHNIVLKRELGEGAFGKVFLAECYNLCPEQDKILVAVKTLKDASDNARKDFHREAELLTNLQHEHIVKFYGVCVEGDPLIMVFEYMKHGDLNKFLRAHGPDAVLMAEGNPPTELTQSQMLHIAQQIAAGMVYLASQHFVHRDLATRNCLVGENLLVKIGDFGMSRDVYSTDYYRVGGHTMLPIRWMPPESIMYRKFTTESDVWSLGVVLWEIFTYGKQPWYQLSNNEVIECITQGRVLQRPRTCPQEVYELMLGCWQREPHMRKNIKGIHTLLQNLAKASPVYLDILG
Assay [7] has as its target T1, rat TfR-1 (transferrin receptor 1), …. As to the kind of experiment: kinetic ELISA on coated recombinant TfR-1 (Vmax at 370 nm); ND: not detected. The protocol: as §1, §2
Assay [8] deals with T2, cynomolgus TfR-1 (transferrin receptor …). The description is as above. The protocol: as §1, §2
Assay [9] deals with T3, mouse TfR-1 (transferrin receptor 1), …. The assay is described as above. The protocol: as §1, §2
The target in assay [10] is T4, human TfR-1 (transferrin receptor 1), …. The assay is described as above. The protocol: as §1, §2

T1 sequence (Q99376 89-761 limits assumed): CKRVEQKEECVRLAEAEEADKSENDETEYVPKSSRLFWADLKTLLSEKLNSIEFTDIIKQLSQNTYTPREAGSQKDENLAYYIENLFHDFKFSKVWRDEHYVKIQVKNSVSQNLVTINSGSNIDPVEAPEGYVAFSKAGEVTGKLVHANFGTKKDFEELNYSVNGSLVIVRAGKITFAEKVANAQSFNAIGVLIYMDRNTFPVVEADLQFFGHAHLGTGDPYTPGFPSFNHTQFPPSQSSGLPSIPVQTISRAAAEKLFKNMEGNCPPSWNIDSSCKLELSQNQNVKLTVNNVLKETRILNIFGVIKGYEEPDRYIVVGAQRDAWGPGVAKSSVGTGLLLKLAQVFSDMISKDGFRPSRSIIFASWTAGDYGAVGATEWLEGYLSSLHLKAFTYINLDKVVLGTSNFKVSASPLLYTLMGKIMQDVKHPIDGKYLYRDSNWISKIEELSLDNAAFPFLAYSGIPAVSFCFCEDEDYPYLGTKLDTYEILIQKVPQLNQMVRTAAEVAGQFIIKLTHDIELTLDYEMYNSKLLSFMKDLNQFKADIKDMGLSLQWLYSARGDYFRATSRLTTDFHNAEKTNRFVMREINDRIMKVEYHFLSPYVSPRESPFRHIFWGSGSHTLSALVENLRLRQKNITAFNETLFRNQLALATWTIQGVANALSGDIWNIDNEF

B1: VNAR-Fc control conjugate (TXB4 fused to the N-terminal end of the Fc domain) (Fc fusion)
chain: ARVDQTPQTITKETGESLTINCVLRDSNCALSSTYWYRKKSGSTNEENISKGGRYVETVNSGSKSFSLRINDLTVEDSGTYRCNVVQYPQYPNYFWCDVYGDGTAVTVNA
notes: also called control VNAR-Fc fusion; not shown: Fc domain
As usually defined, the EC50 is the concentration that produces a half-maximal response. In the case of B1, the half-maximal effective concentration (EC50) in assay [1] is 1.37 nM; in assay [2], 1 nM; in [3] it was 0.54 nM; in assay [4], 0.78 nM. Also, the binding result in [5] is on record as “no binding”.

B2: TrkB(HC2N) conjugate (TXB4 VNAR fused to the N-terminus of the TrkB antibody heavy chain via a 3xG4S linker) (bispecific antibody, human IgG1, kappa, L234A L235A)
light: AIVLIQSPATLSVTPGDSVSLSCRASQTISNNLHWYQQKSHESPRLLIKSASLAISGIPSRFSGSGSGTDFTLSISSVETEDFGMYFCQQSNSWPNTFGGGTKLEIKRTVAAPSVFIFPPSDEQLKSGTASVVCLLNNFYPREAKVQWKVDNALQSGNSQESVTEQDSKDSTYSLSSTLTLSKADYEKHKVYACEVTHQGLSSPVTKSFNRGEC
heavy: not shown
notes: Copies of 2 are inferred from the IgG1 format; also called TXB4-TrkB-AAb conjugate
As to B2, the EC50 worked out at 4.03 nM in assay [1], 0.79 nM in [2], 0.63 nM in assay [3] and 0.74 nM in assay [4]. The “agonist activity relative to TrkB(HV2N) (TrkB-NFAT-bla CHO-K1 cells)” value in assay [6] is ~7 fold less than TrkB(HV2N). Moreover, the “maximal reporter response as percentage of the BDNF response (TrkB-NFAT-bla CHO-K1 cells)” value (“maximal reporter response as percentage” for short) in [6] is roughly 50%. Besides, in assay [5], the binding result is “no binding”.

B3: TrkB(HV2N) conjugate (TXB4 VNAR inserted between the CH1 and Fc domains of the TrkB antibody heavy chain) (bispecific antibody, IgG1)
light: AIVLIQSPATLSVTPGDSVSLSCRASQTISNNLHWYQQKSHESPRLLIKSASLAISGIPSRFSGSGSGTDFTLSISSVETEDFGMYFCQQSNSWPNTFGGGTKLEIKRTVAAPSVFIFPPSDEQLKSGTASVVCLLNNFYPREAKVQWKVDNALQSGNSQESVTEQDSKDSTYSLSSTLTLSKADYEKHKVYACEVTHQGLSSPVTKSFNRGEC
heavy: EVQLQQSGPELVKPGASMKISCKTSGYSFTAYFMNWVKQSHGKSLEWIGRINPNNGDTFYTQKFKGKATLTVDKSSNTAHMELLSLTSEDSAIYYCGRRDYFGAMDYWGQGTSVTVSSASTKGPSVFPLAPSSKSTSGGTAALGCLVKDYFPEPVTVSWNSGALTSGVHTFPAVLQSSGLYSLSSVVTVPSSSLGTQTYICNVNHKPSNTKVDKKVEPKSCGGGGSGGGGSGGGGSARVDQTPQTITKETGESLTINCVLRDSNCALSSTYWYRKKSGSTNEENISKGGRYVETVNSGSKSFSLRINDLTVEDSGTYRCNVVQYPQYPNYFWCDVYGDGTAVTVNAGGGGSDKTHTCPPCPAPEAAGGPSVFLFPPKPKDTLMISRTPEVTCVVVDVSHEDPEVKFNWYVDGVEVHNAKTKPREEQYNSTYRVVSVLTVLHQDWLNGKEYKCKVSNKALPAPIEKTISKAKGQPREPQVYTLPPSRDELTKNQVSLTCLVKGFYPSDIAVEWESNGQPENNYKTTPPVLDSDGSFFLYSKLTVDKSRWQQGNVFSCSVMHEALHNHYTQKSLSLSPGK
notes: Copies of 2 are inferred from the IgG1 format; also called TrkB1-TXB4; TXB4-TrkB-AAb conjugate
As for B3, the EC50 in [1] stood at 61 nM; in assay [2], 2.04 nM; in [3], 5.07 nM; in [4], 5.3 nM. Further, the “maximal reporter response as percentage” value in [6] is roughly 50%. Moreover, in [5], the binding result was “no binding”.

B4: unconjugated TrkB-AAb (mouse-human chimeric 29D7 TrkB agonist antibody, human IgG1 LALA / human kappa) (antibody, V domains shown)
VH: EVQLQQSGPELVKPGASMKISCKTSGYSFTAYFMNWVKQSHGKSLEWIGRINPNNGDTFYTQKFKGKATLTVDKSSNTAHMELLSLTSEDSAIYYCGRRDYFGAMDYWGQGTSVTVSS
VL: AIVLIQSPATLSVTPGDSVSLSCRASQTISNNLHWYQQKSHESPRLLIKSASLAISGIPSRFSGSGSGTDFTLSISSVETEDFGMYFCQQSNSWPNTFGGGTKLEIKR
notes: VH and VL of mouse 29D7 fused to human IgG1 and human kappa constant regions; Copies of 2 are inferred from the IgG1 format; also called unconjugated TrkB antibody; TrkB 29D7
Turning to B4, in assay [6], the “maximal reporter response as percentage” value was roughly 50%. In addition, the binding result in assay [5], in assay [7], in [8], in assay [9] and in assay [10] was “no binding” each time.
